Source: US20230364254A1, “METHODS FOR TREATING CANCERS WITH ANTIBODY DRUG CONJUGATES (ADC) THAT BIND TO 191P4D12 PROTEINS” (priority 2020, published 2023)

Test system: patients treated with enfortumab vedotin
Assay: Phase 1 study ASG-22CE-13-2 of enfortumab vedotin: dermatologic and corneal adverse events
Type: in vivo, human
Text: In the phase 1 study (Study ASG-22CE-13-2), rash and similar dermatologic AEs were common among patients treated with enfortumab vedotin, and were seen more frequently at the highest dose. Although the exact etiology of dermatologic toxicities associated with enfortumab vedotin is unclear at this time, due to the expression of Nectin-4 in the skin, rash may be an on-target toxicity. The most common dermatological AEs reported in ASG-22CE-13-2 were drug eruption, rash, skin exfoliation, skin pigmentation disorder, and rash maculo-papular. Most occurred during Cycle 1, and some were associated with pruritus. Almost all were mild, with the exception of two events of rash reported as Grade 3 in the 1 mg/kg dose group. […] Mild rash related to enfortumab vedotin should be treated using local supportive care as needed. Topical corticosteroids have been used along with antihistamines for pruritus as needed.
Slit lamp examinations will be conducted on at least the first 60 enrolled patients (from Cohorts 1 and/or 2) on Cycle 2 Day 22 (±1 week) and Cycle 6 Day 22 (±1 week). If corneal AEs are observed in <15% of the first 60 enrolled patients and if the events are generally low grade or asymptomatic, the IDMC may make a recommendation to cease Cycle 2 Day 22 and/or Cycle 6 Day 22 slit lamp exams for the remaining patients if warranted based on review of the cumulative ocular safety data. Based on the results from the Phase 1 study (Study ASG-22CE-13-2), as of the data cut-off date of 14 Nov. 2016, there were 3 patients who reported experiencing corneal adverse events out of 33 patients on […] of enfortumab vedotin. Assuming an event rate of 9% (3/33), with a sample size of 60, the probability of observing >3 events (5%) is 80.0% and the probability of observing <9 events (15%) is 91.2%. If the event rate is higher, the probability of observing <9 events is decreased. For example, if the event rate is 20%, the probability of observing <9 events is decreased to 12.7%. Based on the analysis described above and the review of cumulative ocular safety data, the IDMC recommended that the Cycle 2 Day 22 and Cycle 6 Day 22 slit lamp exams be discontinued in July 2018 and August 2019, respectively.

enfortumab vedotin: Nectin-4 directed ADC: fully human anti-nectin-4 IgG1 kappa antibody (AGS-22C3) conjugated to MMAE via protease-cleavable maleimidocaproyl valine-citrulline linker
dermatological AEs that required discontinuation of study drug: None
events of rash reported as Grade 3 (1 mg/kg dose group): two
corneal adverse event rate (3/33) (1.25 mg/kg): 9%
events of Grade 1 papular rash that required a dose reduction (1.25 mg/kg): one
patients who reported experiencing corneal adverse events (out of 33 patients on 1.25 mg/kg, data cut-off 14 Nov. 2016): 3
